These results are taken from US7550425B2, “Diuretic peptide conjugates” (Zealand Pharma A/S, priority 2000, dated 2009).

Peptide text beside a SMILES is read from it.

The target in test [1] is T1, hORL1 receptor (Homo sapiens, UniProt P41146). Description: Binding to human ORL1 receptor expressed in CHO cells. Set-up: expressed in transfected cells; host or cells: CHO.
Test [2] addresses T1, hORL1 receptor. As to the kind of experiment: Efficacy: inhibition of forskolin-induced cAMP formation, hORL1 in CHO cells. Set-up: expressed in transfected cells; host or cells: CHO. Type of test: cell-based. From the text: The ORL1 receptor is negatively coupled to cAMP and thus the effect of ORL1 agonists are detected as an inhibition of forskolin-incuced cAMP formation. Six compounds of the invention have been tested for efficacy on hORL1 receptor expressed in CHO cells.
Background: Cyclic AMP is a second messenger, typically raised through Gs and lowered through Gi signalling.

In test [3] the target is T2, human ORL1 receptor (human, UniProt P41146 1-370). Description: cell-based or functional assay.
T2 sequence (P41146 whole entry): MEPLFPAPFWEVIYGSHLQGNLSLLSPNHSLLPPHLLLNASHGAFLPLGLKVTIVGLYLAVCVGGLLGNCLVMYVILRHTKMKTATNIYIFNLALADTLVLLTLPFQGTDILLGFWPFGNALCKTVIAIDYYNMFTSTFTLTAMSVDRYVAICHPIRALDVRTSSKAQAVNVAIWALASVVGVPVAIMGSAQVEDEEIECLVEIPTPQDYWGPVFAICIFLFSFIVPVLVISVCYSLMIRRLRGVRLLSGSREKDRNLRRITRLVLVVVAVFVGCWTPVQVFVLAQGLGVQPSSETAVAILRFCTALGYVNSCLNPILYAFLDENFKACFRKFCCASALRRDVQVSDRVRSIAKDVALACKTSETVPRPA
Test [4] concerns the target T2, human ORL1 receptor. As to the kind of experiment: cell-based or functional assay. This is another data set of the same source.
In test [5] the target is T2, human ORL1 receptor. As to the kind of experiment: displacement of [3H]-labeled nociceptin, HEK293 cells transfected with the human ORL1 receptor. A general note: Displacement assays read how much labelled ligand stays bound in the presence of the test substance.
Test [6] has as its target T2, human ORL1 receptor. Description: binding to hORL1 receptor expressed in CHO cells, one experiment.

T1 sequence (P41146 whole entry): as above

Turning to `CC(=O)N[C@H](CCCNC(=N)N)C(=O)N[C@H](Cc1ccc(O)cc1)C(=O)N[C@H](Cc1ccc(O)cc1)C(=O)N[C@H](CCCNC(=N)N)C(=O)N[C@H](Cc1c[nH]c2ccccc12)C(=O)N[C@H](CCCCN)C(=O)N[C@H](CCCCN)C(=O)N[C@H](CCCCN)C(=O)N[C@H](CCCCN)C(=O)N[C@H](CCCCN)C(=O)N[C@H](CCCCN)C(=O)N[C@H](CCCCN)C(N)=O` [Compound 8, Ac-RYYRWKKKKKKK-NH2 (all D)] (HELM PEPTIDE1{[ac].[dR].[dY].[dY].[dR].[dW].[dK].[dK].[dK].[dK].[dK].[dK].[dK].[am]}$$$$V2.0), the IC50 (as a rule, the concentration that gives 50% inhibition) at hORL1 receptor [1] was 78000 pM. Also, a half-maximal response at hORL1 receptor [2] (EC50) required 59000 pM.

B1: Compound 1 Ac-Arg-Tyr-Tyr-Arg-Trp-Lys-Lys-Lys-Lys-Lys-Lys-Lys-NH2 (peptide)
peptide: Ac-RYYRWKKKKKKK-NH2
modifications: also: trifluoroacetate salt
notes: Synthetic peptide conjugate; the primary product is the trifluoroacetate salt; also called Compound I
Turning to B1, in the test with human ORL1 receptor [3], the “Efficacy EC50 (nM), inhibition of forskolin-induced cAMP formation” value was found to be 0.58 nM. In the test with human ORL1 receptor [4], the “inhibition of forskoline-induced formation of cAMP, EC50” value was 540 pM and the “inhibition of forskoline-induced formation of cAMP, relative maximum relative to nociceptin” value came out at 92%. Also, the Ki (commonly the equilibrium dissociation constant of an inhibitor or competing ligand from its target) with human ORL1 receptor [5] was determined as 260 pM. In addition, the IC50 with human ORL1 receptor [6] came to 320 pM.
